Measurements from US20210347873A1 (SHANGHAI PHARMAEXPLORER, published 2021).

Columns and labels:
[1] = target: T1, cynomolgus BLyS (full length, arginine to histidine at position 132) on CHO-K1 cells (cynomolgus, UniProt Q9Y275 1-285 (human entry)); test: flow cytometry, CHO-K1 cynoBLyS cells, antibody 0.107 nM
T1 construct: also called cyno BLyS; CHO-K1 cynoBLyS
T1 chain: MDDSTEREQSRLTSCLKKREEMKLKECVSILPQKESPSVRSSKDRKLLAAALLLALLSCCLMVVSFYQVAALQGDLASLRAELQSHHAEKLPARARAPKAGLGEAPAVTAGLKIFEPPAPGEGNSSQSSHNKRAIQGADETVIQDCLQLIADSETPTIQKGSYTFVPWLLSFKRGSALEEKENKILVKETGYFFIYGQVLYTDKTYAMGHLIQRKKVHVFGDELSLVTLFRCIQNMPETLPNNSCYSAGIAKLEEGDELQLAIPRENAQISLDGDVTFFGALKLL
Protocol: (§1) The medium was aspirated completely, and the cells were rinsed once with PBS buffer (purchased from Invitrogen) and then treated with cell dispersion solution (TrypLE™ Express Enzyme, purchased from Life technology) and collected. The detailed steps are as follows: the cells were rinsed once with PBS buffer, after counting, the cells were diluted to 2×10⁶ cells/ml with PBS buffer, blocked with 2% (w/w) fetal bovine serum and incubated on ice for 30 minutes. 200 μL of which per well was aliquoted into a 96-well FACS plate and centrifuged at 2000 rpm at 4° C., then each 100 μL of the lead antibodies obtained from Embodiment 1 and 2 were aliquoted into each well and incubated on ice for 1 hour. […] After centrifuged and rinsed 3 times with FACS buffer, cells were suspended with 200 μL of FACS buffer and the results were detected and analyzed by FACS (FACS Calibur, purchased from BD). It was shown in Tables 12-13 that the lead antibody could bind to human BLyS protein on the cell surface and the lead antibody could cross-react with cynomolgus BLyS. The data in the table is MFI, the average fluorescence intensity of the cell population.

[2] = target: T2, human BLyS (full length, arginine to histidine at position 132) on CHO-K1 cells (human, UniProt Q9Y275 1-285); test: flow cytometry, CHO-K1 hBLyS cells, antibody 0.107 nM
T2 construct: also called hBLyS; CHO-K1 hBLyS
Protocol: as §1

[3] = target: T2, human BLyS (full length, arginine to …); test: flow cytometry, CHO-K1 hBLyS cells, antibody 0.0213 nM
Protocol: as §1

[4] = target: T1, cynomolgus BLyS (full length, arginine …); test: flow cytometry, CHO-K1 cynoBLyS cells, antibody 0.0213 nM
Protocol: as §1

[5] = target: T1, cynomolgus BLyS (full length, arginine …); test: flow cytometry, CHO-K1 cynoBLyS cells, antibody 2.67 nM
Protocol: as §1

[6] = target: T2, human BLyS (full length, arginine to …); test: flow cytometry, CHO-K1 hBLyS cells, antibody 13.3 nM
Protocol: as §1

[7] = target: T1, cynomolgus BLyS (full length, arginine …); test: flow cytometry, CHO-K1 cynoBLyS cells, antibody 0.00427 nM
Protocol: as §1

[8] = target: T2, human BLyS (full length, arginine to …); test: flow cytometry, CHO-K1 hBLyS cells, antibody 0.534 nM
Protocol: as §1

[9] = target: T2, human BLyS (full length, arginine to …); test: flow cytometry, CHO-K1 hBLyS cells, antibody 2.67 nM
Protocol: as §1

[10] = target: T1, cynomolgus BLyS (full length, arginine …); test: flow cytometry, CHO-K1 cynoBLyS cells, antibody 0.534 nM
Protocol: as §1

[11] = target: T2, human BLyS (full length, arginine to …); test: flow cytometry, CHO-K1 hBLyS cells, antibody 0.00427 nM
Protocol: as §1

[12] = target: T1, cynomolgus BLyS (full length, arginine …); test: flow cytometry, CHO-K1 cynoBLyS cells, antibody 66.7 nM
Protocol: as §1

mouse BLyS protein = mouse BLyS protein (mouse, UniProt Q9WU72 69-309); test: cell-based or functional assay
[13] = target: T2, human BLyS (full length, arginine to …); test: flow cytometry, CHO-K1 hBLyS cells, antibody 0 nM
Protocol: as §1

[14] = target: hBLyS-ECD (His-tagged extracellular domain of human BLyS protein, Ala134-Leu285) (human, UniProt Q9Y275 134-285); test: cell-based or functional assay
[15] = target: T1, cynomolgus BLyS (full length, arginine …); test: flow cytometry, CHO-K1 cynoBLyS cells, antibody 13.3 nM
Protocol: as §1

[16] = target: T1, cynomolgus BLyS (full length, arginine …); test: flow cytometry, CHO-K1 cynoBLyS cells, antibody 0 nM
Protocol: as §1

[17] = target: T2, human BLyS (full length, arginine to …); test: flow cytometry, CHO-K1 hBLyS cells, antibody 66.7 nM
Protocol: as §1

Sequence of mouse BLyS protein (Q9WU72 69-309): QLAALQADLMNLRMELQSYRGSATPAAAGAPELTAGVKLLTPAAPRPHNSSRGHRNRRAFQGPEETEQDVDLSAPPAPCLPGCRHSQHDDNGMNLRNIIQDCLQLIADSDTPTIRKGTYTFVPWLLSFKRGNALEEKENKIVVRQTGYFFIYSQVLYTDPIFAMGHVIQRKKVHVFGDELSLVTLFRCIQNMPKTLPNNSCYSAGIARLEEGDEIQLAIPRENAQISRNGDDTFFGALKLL

B1: 93C6F10D3 (antibody, V domains shown)
VH: EVQLVESGGGLVTPGGSLKLSCVASGFAFSTYGMSWVRQTPERRLEWVAYISGGGGSIYYPDSVKGRFTISRDNAKNILYLQMSSLKSEDTAMYHCTRHPDLLLRYDYALDHWGQGTSVTVSS
VL: DIQMTQSPASLSASVGETVTITCRASENIHIYLAWYQQKQGKSPQLLVYNGKTLADGVPSRFSGSGSGTQYSLKINTLQPEDFGNYYCQHFWNSTWTFGGGTKLEIK
notes: Mouse hybridoma monoclonal antibody purified on Protein G
MFI [1]: 308 MFI | MFI [2]: 175 MFI | MFI [3]: 76.6 MFI | MFI [4]: 112 MFI | MFI [5]: 729 MFI | MFI [6]: 327 MFI | MFI [7]: 46.9 MFI | MFI [8]: 306 MFI | MFI [9]: 317 MFI | MFI [10]: 706 MFI | MFI [11]: 44.9 MFI | MFI [12]: 785 MFI | mouse B lymphocyte proliferation (OD450 nm), antibody 0 nM (mouse BLyS protein): 2310 OD450 nm | mouse B lymphocyte proliferation (OD450 nm), antibody 0.000256 nM (mouse BLyS protein): 2310 OD450 nm | mouse B lymphocyte proliferation (OD450 nm), antibody 0.00128 nM (mouse BLyS protein): 2290 OD450 nm | mouse B lymphocyte proliferation (OD450 nm), antibody 0.0064 nM (mouse BLyS protein): 2510 OD450 nm | mouse B lymphocyte proliferation (OD450 nm), antibody 0.032 nM (mouse BLyS protein): 2540 OD450 nm | mouse B lymphocyte proliferation (OD450 nm), antibody 0.16 nM (mouse BLyS protein): 2540 OD450 nm | mouse B lymphocyte proliferation (OD450 nm), antibody 0.8 nM (mouse BLyS protein): 2530 OD450 nm | mouse B lymphocyte proliferation (OD450 nm), antibody 4 nM (mouse BLyS protein): 2640 OD450 nm | mouse B lymphocyte proliferation (OD450 nm), antibody 20 nM (mouse BLyS protein): 2620 OD450 nm | mouse B lymphocyte proliferation (OD450 nm), antibody 100 nM (mouse BLyS protein): 2740 OD450 nm | MFI [13]: 31.6 MFI | mouse B lymphocyte proliferation (OD450 nm), antibody 0 nM [14]: 3030 OD450 nm | mouse B lymphocyte proliferation (OD450 nm), antibody 0.000256 nM [14]: 3420 OD450 nm | mouse B lymphocyte proliferation (OD450 nm), antibody 0.00128 nM [14]: 3550 OD450 nm | mouse B lymphocyte proliferation (OD450 nm), antibody 0.0064 nM [14]: 4050 OD450 nm | mouse B lymphocyte proliferation (OD450 nm), antibody 0.032 nM [14]: 4360 OD450 nm | mouse B lymphocyte proliferation (OD450 nm), antibody 0.16 nM [14]: 3530 OD450 nm | mouse B lymphocyte proliferation (OD450 nm), antibody 0.8 nM [14]: 799 OD450 nm | mouse B lymphocyte proliferation (OD450 nm), antibody 4 nM [14]: 514 OD450 nm | mouse B lymphocyte proliferation (OD450 nm), antibody 20 nM [14]: 466 OD450 nm | mouse B lymphocyte proliferation (OD450 nm), antibody 100 nM [14]: 416 OD450 nm | MFI [15]: 714 MFI | MFI [16]: 21.9 MFI | MFI [17]: 392 MFI

B2: 89A2G5E7 (antibody, V domains shown)
VH: QVQLKESGPGLVAPSQSLSITCTVSGLSLNSHDISWIRQPPGKGLEWLGVIWSGGGTKYNSAFMSRLSISKDNSKSQVFLKMNSLHTDDTAIYYCVRTPSMITYSAMDYWGQGTSVTVSS
VL: EIVLTQSPALMAASPGEKVTITCSVSSSISSRNLHWYQQKSQTSPKAWIHATSNLASGVPVRFSGSGSGTSYSLTISSMEAEDAATYYCQQWSSYPLTFGSGTKLEIK
notes: as for B1
MFI [1]: 125 MFI | MFI [2]: 92.1 MFI | MFI [3]: 48.1 MFI | MFI [4]: 53.6 MFI | MFI [5]: 726 MFI | MFI [6]: 406 MFI | MFI [7]: 32.1 MFI | MFI [8]: 192 MFI | MFI [9]: 374 MFI | MFI [10]: 355 MFI | MFI [11]: 37 MFI | MFI [12]: 884 MFI | mouse B lymphocyte proliferation (OD450 nm), antibody 0 nM (mouse BLyS protein): 2090 OD450 nm | mouse B lymphocyte proliferation (OD450 nm), antibody 0.000256 nM (mouse BLyS protein): 2170 OD450 nm | mouse B lymphocyte proliferation (OD450 nm), antibody 0.00128 nM (mouse BLyS protein): 2270 OD450 nm | mouse B lymphocyte proliferation (OD450 nm), antibody 0.0064 nM (mouse BLyS protein): 2170 OD450 nm | mouse B lymphocyte proliferation (OD450 nm), antibody 0.032 nM (mouse BLyS protein): 2390 OD450 nm | mouse B lymphocyte proliferation (OD450 nm), antibody 0.16 nM (mouse BLyS protein): 2370 OD450 nm | mouse B lymphocyte proliferation (OD450 nm), antibody 0.8 nM (mouse BLyS protein): 2640 OD450 nm | mouse B lymphocyte proliferation (OD450 nm), antibody 4 nM (mouse BLyS protein): 2480 OD450 nm | mouse B lymphocyte proliferation (OD450 nm), antibody 20 nM (mouse BLyS protein): 2640 OD450 nm | mouse B lymphocyte proliferation (OD450 nm), antibody 100 nM (mouse BLyS protein): 2480 OD450 nm | MFI [13]: 31 MFI | mouse B lymphocyte proliferation (OD450 nm), antibody 0 nM [14]: 3440 OD450 nm | mouse B lymphocyte proliferation (OD450 nm), antibody 0.000256 nM [14]: 3120 OD450 nm | mouse B lymphocyte proliferation (OD450 nm), antibody 0.00128 nM [14]: 3700 OD450 nm | mouse B lymphocyte proliferation (OD450 nm), antibody 0.0064 nM [14]: 3700 OD450 nm | mouse B lymphocyte proliferation (OD450 nm), antibody 0.032 nM [14]: 3360 OD450 nm | mouse B lymphocyte proliferation (OD450 nm), antibody 0.16 nM [14]: 3270 OD450 nm | mouse B lymphocyte proliferation (OD450 nm), antibody 0.8 nM [14]: 530 OD450 nm | mouse B lymphocyte proliferation (OD450 nm), antibody 4 nM [14]: 431 OD450 nm | mouse B lymphocyte proliferation (OD450 nm), antibody 20 nM [14]: 433 OD450 nm | mouse B lymphocyte proliferation (OD450 nm), antibody 100 nM [14]: 414 OD450 nm | MFI [15]: 829 MFI | MFI [16]: 21.2 MFI | MFI [17]: 431 MFI
